Experimental data published in patent US11325966.

Columns and labels:
Test in all cases: cell-based or functional assay
[1] = biological target: HIV-1 Env of pseudovirus MS208.A1 (HIV-1)
[2] = biological target: HIV-1 Env of pseudovirus CNE8 (HIV-1)
[3] = biological target: HIV-1 Env of pseudovirus Ce703010054_2A2 (HIV-1)
[4] = biological target: HIV-1 Env of pseudovirus Q23.17 (HIV-1)
[5] = biological target: HIV-1 Env of pseudovirus T257-31 (HIV-1)
[6] = biological target: HIV-1 Env of pseudovirus Q842.d12 (HIV-1)
[7] = biological target: HIV-1 Env of pseudovirus Du156.12 (HIV-1)
[8] = biological target: HIV-1 Env of pseudovirus CAP210.2.00.E8 (HIV-1)
[9] = biological target: HIV-1 Env of pseudovirus C4118.c09 (HIV-1)
[10] = biological target: HIV-1 Env of pseudovirus AC10.0.29 (HIV-1)
[11] = biological target: HIV-1 Env of pseudovirus 6240_08_TA5_4622 (HIV-1)
[12] = biological target: HIV-1 Env of pseudovirus TRO.11 (HIV-1)
[13] = biological target: HIV-1 Env of pseudovirus 3103.v3.c10 (HIV-1)
[14] = biological target: HIV-1 Env of pseudovirus Ce1086_B2 (HIV-1)
[15] = biological target: HIV-1 Env of pseudovirus Ce704809221_1B3 (HIV-1)
[16] = biological target: HIV-1 Env of pseudovirus P1981_C5_3 (HIV-1)
[17] = biological target: HIV-1 Env of pseudovirus 263-8 (HIV-1)
[18] = biological target: HIV-1 Env of pseudovirus Ce1176_A3 (HIV-1)
[19] = biological target: HIV-1 Env of pseudovirus Q259.d2.17 (HIV-1)
[20] = biological target: HIV-1 Env of pseudovirus T255-34 (HIV-1)
[21] = biological target: HIV-1 Env of pseudovirus BF1266.431a (HIV-1)
[22] = biological target: HIV-1 Env of pseudovirus CNE5 (HIV-1)
[23] = biological target: HIV-1 Env of pseudovirus CNE30 (HIV-1)
[24] = biological target: HIV-1 Env of pseudovirus 620345.c01 (HIV-1)
[25] = biological target: HIV-1 Env of pseudovirus R3265.c06 (HIV-1)
[26] = biological target: HIV-1 Env of pseudovirus 6535.3 (HIV-1)
[27] = biological target: HIV-1 Env of pseudovirus 6244_13_B5_4576 (HIV-1)
[28] = biological target: HIV-1 Env of pseudovirus 3415.v1.c1 (HIV-1)
[29] = biological target: HIV-1 Env of pseudovirus 928-28 (HIV-1)
[30] = biological target: HIV-1 Env of pseudovirus CNE53 (HIV-1)
[31] = biological target: HIV-1 Env of pseudovirus Ce1172_H1 (HIV-1)
[32] = biological target: HIV-1 Env of pseudovirus 1056_10_TA11_1826 (HIV-1)
[33] = biological target: HIV-1 Env of pseudovirus Ce0393_C3 (HIV-1)

BG18 IgG (354BG18) (antibody)
IC50 in TZM-bl assay [1]: > 30 µg/mL | IC80 in TZM-bl assay [1]: > 30 µg/mL | IC50 in TZM-bl assay [2]: > 30 µg/mL | IC80 in TZM-bl assay [2]: > 30 µg/mL | IC50 in TZM-bl assay [3]: > 30 µg/mL | IC80 in TZM-bl assay [3]: > 30 µg/mL | IC50 in TZM-bl assay [4]: 0.006 µg/mL | IC80 in TZM-bl assay [4]: 0.02 µg/mL | IC50 in TZM-bl assay [5]: > 30 µg/mL | IC80 in TZM-bl assay [5]: > 30 µg/mL | IC50 in TZM-bl assay [6]: 14 µg/mL | IC80 in TZM-bl assay [6]: > 30 µg/mL | IC50 in TZM-bl assay [7]: 0.003 µg/mL | IC80 in TZM-bl assay [7]: 0.01 µg/mL | IC50 in TZM-bl assay [8]: 3.47 µg/mL | IC80 in TZM-bl assay [8]: 10.7 µg/mL | IC50 in TZM-bl assay [9]: > 30 µg/mL | IC80 in TZM-bl assay [9]: > 30 µg/mL | IC80 in TZM-bl assay [10]: 0.003 µg/mL | IC50 in TZM-bl assay [11]: 0.003 µg/mL | IC80 in TZM-bl assay [11]: 0.01 µg/mL | IC80 in TZM-bl assay [12]: 0.002 µg/mL | IC50 in TZM-bl assay [13]: 0.002 µg/mL | IC80 in TZM-bl assay [13]: 0.005 µg/mL | IC50 in TZM-bl assay [14]: > 30 µg/mL | IC80 in TZM-bl assay [14]: > 30 µg/mL | IC50 in TZM-bl assay [15]: 4.39 µg/mL | IC80 in TZM-bl assay [15]: > 30 µg/mL | IC50 in TZM-bl assay [16]: 0.006 µg/mL | IC80 in TZM-bl assay [16]: 0.019 µg/mL | IC50 in TZM-bl assay [17]: 1.38 µg/mL | IC80 in TZM-bl assay [17]: 7.55 µg/mL | IC50 in TZM-bl assay [18]: 0.004 µg/mL | IC80 in TZM-bl assay [18]: 0.012 µg/mL | IC50 in TZM-bl assay [19]: > 30 µg/mL | IC80 in TZM-bl assay [19]: > 30 µg/mL | IC50 in TZM-bl assay [20]: > 30 µg/mL | IC80 in TZM-bl assay [20]: > 30 µg/mL | IC50 in TZM-bl assay [21]: > 30 µg/mL | IC80 in TZM-bl assay [21]: > 30 µg/mL | IC50 in TZM-bl assay [22]: > 30 µg/mL | IC80 in TZM-bl assay [22]: > 30 µg/mL | IC50 in TZM-bl assay [23]: 0.019 µg/mL | IC80 in TZM-bl assay [23]: 0.059 µg/mL | IC50 in TZM-bl assay [24]: > 30 µg/mL | IC80 in TZM-bl assay [24]: > 30 µg/mL | IC50 in TZM-bl assay [25]: > 30 µg/mL | IC80 in TZM-bl assay [25]: > 30 µg/mL | IC80 in TZM-bl assay [26]: 0.005 µg/mL | IC50 in TZM-bl assay [27]: 0.011 µg/mL | IC80 in TZM-bl assay [27]: 0.049 µg/mL | IC50 in TZM-bl assay [28]: 0.023 µg/mL | IC80 in TZM-bl assay [28]: 0.087 µg/mL | IC50 in TZM-bl assay [29]: 0.761 µg/mL | IC80 in TZM-bl assay [29]: 3.93 µg/mL | IC50 in TZM-bl assay [30]: 0.003 µg/mL | IC80 in TZM-bl assay [30]: 0.011 µg/mL | IC50 in TZM-bl assay [31]: 0.002 µg/mL | IC80 in TZM-bl assay [31]: 0.007 µg/mL | IC50 in TZM-bl assay [32]: 0.007 µg/mL | IC80 in TZM-bl assay [32]: 0.045 µg/mL | IC50 in TZM-bl assay [33]: > 30 µg/mL | IC80 in TZM-bl assay [33]: > 30 µg/mL
